Experimental findings from publication PMC3119050, “High-Resolution X-Ray Structure of the Trimeric Scar/WAVE-Complex Precursor Brk1” (PLoS ONE, 2011) are described below.

Broadly, the stoichiometry N is the number of molecules, sites or subunits per partner or assembly.

Data set [1] concerns the molecule itself. The data set can be described thus: AUC; sedimentation equilibrium, 43 µM and 171 µM DdBrk1, PBS, 10°C, 18,000 and 26,000 rpm, absorbance at 280 nm, global fit with a single species.
Data set [2] concerns the molecule itself. Briefly: AUC; sedimentation velocity with fluorescence detection, 8 to 800 nM DdBrk1_488, PBS, 20°C, 50,000 rpm; trimer to monomers.
In data set [3] the target is T1, Scar(1-225)/AbiA(1-149)/DdBrk1-complex (Dictyostelium discoideum, UniProt Q54NF8 1-225; Q55FT9 1-149; Q54X65 1-68).
T1 construct: AbiA (Abi) of Dictyostelium discoideum, residues 1-149, untagged; remnant after PreScission cleavage; Brk1 of Dictyostelium discoideum, 68 residues; In the exchange experiment the unlabelled DdBrk1 chain of this complex is replaced by DdBrk1_488; also called Scar/AbiA/DdBrk1 subcomplex; source: E. coli BL21 DE3, coexpressed, purified (glutathione sepharose, PreScission cleavage, Superdex-S75); …
T1 sequence 1: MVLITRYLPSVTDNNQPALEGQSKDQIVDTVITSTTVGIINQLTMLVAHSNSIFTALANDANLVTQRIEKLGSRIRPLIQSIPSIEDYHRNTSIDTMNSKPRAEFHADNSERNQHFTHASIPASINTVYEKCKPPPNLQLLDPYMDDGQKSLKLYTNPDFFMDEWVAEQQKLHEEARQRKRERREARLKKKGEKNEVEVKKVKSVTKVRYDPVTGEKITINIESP
T1 sequence 2: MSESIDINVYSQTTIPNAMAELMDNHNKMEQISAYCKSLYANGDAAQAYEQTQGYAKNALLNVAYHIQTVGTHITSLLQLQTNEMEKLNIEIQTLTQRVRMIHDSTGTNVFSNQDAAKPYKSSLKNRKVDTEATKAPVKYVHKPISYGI
T1 sequence 3: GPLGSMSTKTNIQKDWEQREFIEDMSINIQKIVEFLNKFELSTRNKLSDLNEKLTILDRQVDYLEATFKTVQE
The data set can be described thus: SEC; 100 nM DdBrk1_488 incubated with the unlabelled complex (1.4 µM MBP-DdBrk1) for two hours on ice; Superdex-S200 10/300, PBS, 4°C, absorbance at 488 nm and 280 nm. As to conditions: both partners purified. For orientation: Size exclusion chromatography separates by hydrodynamic size, large species first.

B1: Dictyostelium discoideum Brk1 (DdBrk1), GST tag removed (natural protein)
chain: GPLGSMSTKTNIQKDWEQREFIEDMSINIQKIVEFLNKFELSTRNKLSDLNEKLTILDRQVDYLEATFKTVQE
notes: extra amino acids left at the N-terminus after PreScission cleavage of the GST tag; Brk1 (HSPC300 ortholog) of Dictyostelium discoideum, 68 residues; Calculated molar mass 8.61 kg/mol per chain; homotrimer by sedimentation equilibrium; also called DdHSPC300; HSPC300; source: E. coli BL21 DE3, purified (glutathione sepharose, PreScission cleavage, Mono Q, Superdex-S75); not shown: GST, N-terminal, …
As for B1, the “stoichiometry N” value in data set [1] was 3.

B2: DdBrk1_488 (DdBrk1 mutant M1C labelled with Alexa 488) (natural protein, Dictyostelium discoideum)
chain: GPLGSCSTKTNIQKDWEQREFIEDMSINIQKIVEFLNKFELSTRNKLSDLNEKLTILDRQVDYLEATFKTVQE
modifications: Alexa 488 (Alexa-488 Fluor C5 maleimide) on the cysteine that replaces methionine 1
notes: extra amino acids left at the N-terminus after PreScission cleavage of the GST tag; Brk1 of Dictyostelium discoideum, 68 residues, first methionine replaced by cysteine; Trimer at the highest concentrations examined; dissociates in the lower nanomolar range; also called DdBrk1 M1C; DdBrk1_M1C; not shown: GST, N-terminal, cleaved
Regarding B2, the “stoichiometry N” value in data set [2] is 3. The binding result in data set [3] is given as “binds”.
